# According to PMC8240452:
# B1: SARS-CoV-2 RBD aptamer, amine-terminated (ssDNA)
# DNA: CAGCACCGACCTTGTGCTTTGGGAGTGCTGGTCCAAGGGCGTTAATGGACA
# modifications: 5'-NH2-(CH2)6
# Molecular target: SARS-CoV-2 spike receptor-binding domain (RBD) (SARS-CoV-2, UniProt P0DTC2 319-541)
# Assay: 40 min incubation, immobilized aptamer
binder,measurement,value
B1,Kd,3.4 nM
